In patent publication US20230018242A1 one finds limit of quantification (LOQ) and limit of linearity (LOL) data, which are given here for two molecules.

Experiment [1] deals with large surface protein of hepatitis B virus (LHBS), full-length (hepatitis B virus). As to the kind of experiment: chemiluminescent sandwich ELISA on pooled HBsAg(+) sera; pre-S1 antibody coated, pre-S2 antibody detecting (platform 1).
Experiment [2] deals with pre-S region E. coli recombinant protein (hepatitis B virus). As to the kind of experiment: chemiluminescent ELISA, serially diluted antigen coated, antibody 1:2000. (In an ELISA, binding on a coated surface is turned into a signal by an enzyme label.)
Sequence of pre-S region E. coli recombinant protein (hepatitis B virus) (P03141 2-174): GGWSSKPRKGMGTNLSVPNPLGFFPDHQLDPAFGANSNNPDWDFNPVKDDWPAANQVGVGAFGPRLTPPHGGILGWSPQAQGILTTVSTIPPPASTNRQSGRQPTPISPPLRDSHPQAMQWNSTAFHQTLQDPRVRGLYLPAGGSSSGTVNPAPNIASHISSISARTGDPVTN
The target in experiment [3] is large surface protein of hepatitis B virus (LHBS), full-length (hepatitis B virus). As to the kind of experiment: chemiluminescent sandwich ELISA on pooled HBsAg(+) sera; pre-S1 antibody coated, HBS antibody detecting (platform 2).

B1: pre-S2 monoclonal antibody (antibody, V domains shown)
VH: QVQLQQPGTELVKPGTSVKLSCKASGYTFTSYWMHWVKLRPGQGFEWIGEINPSNGITNYNEKFKRKATLTVDKSSTTAYMQLSSLTFEDSAVYYCTIGYDYGSNYEAMDFWGQGTSVTVSS
VL: DIVMTQAAFSNPVTLGTSASMSCRSSKSLLHSNGITYLYWYLQKPGQSPQLLIYQMSNLASGVPDRFSSGGSGTDFTLRISRVEAEDVGVYYCAQNLELPWTFGGGTKLEIK
As for B1, the limit of quantification (LOQ) in experiment [1] came out at 13.5 ng/mL. In experiment [2], the limit of linearity (LOL) came out at 1.56 ng/mL and the limit of quantification (LOQ) came to 0.04 ng/mL.

B2: HBS monoclonal antibody (antibody, V domains shown)
VH: VQLQQSGPELVKPGASVKMSCKASGYTLTDYVIGWVKQRTGQGLEWIGEVYPGSVYTSYNEKFKGKATLTADKSSNTAYMQLSGLTSDDSAVYFCAYDGYSPFDYWGQGTTLTVSS
VL: NIVMTQSPKSMSMSVGERVTLTCKASENVGTYVSWFQQKPGQSPKLLIYGASNRYIGVPDRFTGSGSATDFTLTISSVQAEDLAEYHCGQSYNYPHTFGGGTKLVIKR
The molecule B2 had a limit of quantification (LOQ) in experiment [3] of 1.7 ng/mL.
